The results in this text go back to PMC9481167, “Biosynthetic proteins targeting the SARS-CoV-2 spike as anti-virals” (PLoS Pathogens, 2022).

The target in this assay is receptor binding domain (RBD) of the SARS-CoV-2 spike (SARS-CoV-2, UniProt P0DTC2, biotin (biotinylated; site not stated)). Description: BLI. Particulars: both partners purified.

B1: VHH H11D4 (VHH)
VHH: QVQLVESGGGLMQAGGSLRLSCAVSGRTFSTAAMGWFRQAPGKEREFVAAIRWSGGSAYYADSVKGRFTISRDKAKNTVYLQMNSLKYEDTAVYYCARTENVRSLLSDYATWPYDYWGQGTQVTVSS
notes: also called VHH11D4
Take B1: the binding result was “binds”.

B2: VHH-72 (VHH)
VHH: QVQLQESGGGLVQAGGSLRLSCAASGRTFSEYAMGWFRQAPGKEREFVATISWSGGSTYYTDSVKGRFTISRDNAKNTVYLQMNSLKPDDTAVYYCAAAGLGTVVSEWDYDYDYWGQGTQVTVSS
Consider B2, for which the binding result is given as “binds”.
